The text below walks through data of publication PMC10623405, “CsTT8 regulates anthocyanin accumulation in blood orange through alternative splicing transcription” (Horticulture Research, 2023).

Assay [1] has as its target CsTT8 (TT8 with the full-length open reading frame) from blood orange 'Tarocco' (Citrus sinensis cv. 'Tarocco' (blood orange)).
The target in assay [2] is CsTT8 (TT8 with the full-length open reading frame) from blood orange 'Tarocco' (Citrus sinensis cv. 'Tarocco' (blood …, UniProt A0A0U4H1K1 1-694)). Briefly: cell-based or functional assay.
Sequence of CsTT8 (TT8 with the full-length open reading frame) from blood orange 'Tarocco' (Citrus sinensis cv. 'Tarocco' (A0A0U4H1K1 entry or part of it): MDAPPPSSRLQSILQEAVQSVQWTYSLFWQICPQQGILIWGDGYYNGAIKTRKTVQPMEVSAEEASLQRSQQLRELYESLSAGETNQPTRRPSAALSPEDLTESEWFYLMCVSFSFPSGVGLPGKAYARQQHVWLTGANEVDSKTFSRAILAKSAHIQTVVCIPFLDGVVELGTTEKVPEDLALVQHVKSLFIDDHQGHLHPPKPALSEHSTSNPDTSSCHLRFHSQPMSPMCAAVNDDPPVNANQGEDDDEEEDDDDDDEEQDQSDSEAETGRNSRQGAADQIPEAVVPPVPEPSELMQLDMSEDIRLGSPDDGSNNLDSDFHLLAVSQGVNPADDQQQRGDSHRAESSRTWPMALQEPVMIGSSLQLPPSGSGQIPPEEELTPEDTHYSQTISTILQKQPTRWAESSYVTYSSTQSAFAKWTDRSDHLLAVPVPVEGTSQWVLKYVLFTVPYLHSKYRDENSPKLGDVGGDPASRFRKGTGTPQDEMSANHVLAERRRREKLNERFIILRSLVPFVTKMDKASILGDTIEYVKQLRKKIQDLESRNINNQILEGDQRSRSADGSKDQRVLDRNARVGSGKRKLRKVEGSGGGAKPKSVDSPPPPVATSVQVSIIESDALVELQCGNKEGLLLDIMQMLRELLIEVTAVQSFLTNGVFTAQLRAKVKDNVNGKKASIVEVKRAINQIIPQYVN
Assay [3] deals with Δ15-TT8 (alternative splicing transcript of CsTT8 with the fourth exon skipped) (Citrus sinensis cv. 'Tarocco' (blood orange)).
Sequence of Δ15-TT8 (alternative splicing transcript of CsTT8 with the fourth exon skipped) (Citrus sinensis cv. 'Tarocco' (blood orange)) (main, as listed by the source mutant): as the sequence (A0A0U4H1K1 entry or part of it) above

“MYB5 (an MYB-type transcription factor) from sweet orange (natural protein)”: the dual luciferase reporter with the PH8 promoter in N. benthamiana leaves, effectors TT8 and MYB5, LUC/REN ratio in assay [1] worked out at 0.34 LUC/REN.

B1: RUBY1 (MYB-type transcription factor) from blood orange 'Tarocco' (natural protein, UniProt H6U1F1 1-262, looked up)
chain: MADSLGVRKGAWTGEEDDLLRKCIEKYGEAKWHQVPLRAGLHRCRKSCRLRWLNYLNPNIKRGEFAADEVDLILRLHKLLGNRWSLIVGRLPGRTANDVKNFWNTHLRKKVDKCCKNNKEMKAKAEKVEKINIIKPQPRTFAKNSQWLKGKGMTSNNLQLGDYNLGKQSTPSDHHHHHQQQQENETESVWWESFLFGDELDQQGISSSLSRPEEESTTANIFAEKSPVVTKVTENRVIEAGQSCPTDDFAFDAELWDLLNAK
As for B1, in assay [2], the “dual luciferase reporter with the F3′H promoter in N. benthamiana leaves, effectors TT8 and RUBY1, LUC/REN ratio” value worked out at 0.099 LUC/REN. In addition, the dual luciferase reporter with the F3′H promoter in N. benthamiana leaves, effectors Δ15-TT8 and RUBY1, LUC/REN ratio in assay [3] is 0.042 LUC/REN.
